Experimental data: US20250289899A1 (Genmab, published 2025)

Experiments:
[1] = target: T1, human CD27, full length, on cells (T cells, transfected HEK293F cells, Daudi cells, NFκB-luc2/CD27 Jurkat … (human, UniProt P26842 20-240)); assay: flow cytometry on CD8+ T cells in human PBMC, FITC goat anti-human IgG F(ab')2, median FITC
T1 construct: Residues 1-19 are stated to be the signal peptide; also called TNFRSF7
T1 sequence: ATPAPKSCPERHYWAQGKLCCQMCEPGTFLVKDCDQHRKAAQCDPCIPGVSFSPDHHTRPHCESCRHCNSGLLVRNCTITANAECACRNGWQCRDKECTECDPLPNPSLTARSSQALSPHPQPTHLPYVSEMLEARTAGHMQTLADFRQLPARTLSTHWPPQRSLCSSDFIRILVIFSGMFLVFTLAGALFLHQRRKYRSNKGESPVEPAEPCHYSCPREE
Procedure: Binding of IgG1-CD27-A-P329R-E345R to CD27 on human healthy donor T cells was characterized in more detail using flow cytometry. Anti-HIV gp120 antibody variant IgG1-b12-P329R-E345R was used as non-binding control antibody (ctrl). Human PBMCs were isolated from buffy coats obtained from human healthy donors. PBMC (1×10⁵ cells/well) in FACS buffer were added to polystyrene 96-well round-bottom plates (Greiner bio-one, Cat #650101) and pelleted by centrifugation at 300×g for 3 min at 4° C. The cells were resuspended in 50 μL/well serial antibody dilutions in FACS buffer (range 0.0015 to 10 μg/mL in 3-fold dilution steps) and incubated for 30 min at 4° C. Cells were pelleted, washed twice with FACS buffer and incubated in 50 μL/well with FITC-conjugated secondary antibody (FITC AffiniPure F(ab′)₂ fragment goat anti-human IgG, F(ab′)₂ fragment specific, Jackson ImmunoResearch, Cat #109-096-097, diluted 1:100) for 30 min at 4° C. in the dark. […] The samples were measured by flow cytometry on an LSRFortessa (BD) flow cytometer and analyzed using FlowJo software. Binding curves were analyzed using non-linear regression (sigmoidal dose-response with variable slope) using GraphPad Prism 8 software.

[2] = target: T2, recombinant His-tagged human FcγRIa (human, UniProt P12314 16-288, limits assumed); assay: SPR (Biacore), His-tagged FcγRIa captured on anti-His chip, antibody in solution, resonance units against antibody concentration
T2 construct: Bought; captured on anti-His chip; not shown: His tag
Procedure: Biacore surface chips were covalently linked with anti-His antibody and coated with recombinant His-tagged Fc receptors (A) FcγRIa, (B) FcγRIIa-H, (C) FcγRIIa-R, (D) FcγRIIb, (E) FcγRIIIa-F, or (F) FcγRIIIa-V. The anti-HIV-gp120 antibody IgG1-b12 (ctrl) was included as a reference. Shown are absolute resonance units as determined by Biacore SPR after background subtraction (no Fc receptor flow-cell).
Binding of IgG1-CD27-A-P329R-E345R to human FcγR variants was analyzed using a Biacore surface plasmon resonance (SPR) system and compared to an anti-HIV gp120 antibody IgG1-b12 (ctrl). Biacore Series S Sensor Chips CM5 (Cytiva, Cat #29104988) were covalently coated with anti-His antibody using amine-coupling and His capture kits (Cytiva, Cat #BR100050 and Cat #29234602) according to the manufacturer's instructions. […] After three cycles of buffer, antibody samples were injected for 36 cycles to generate binding curves using antibody ranges of 0-3,000 nM for FcγRI and 0-10,000 nM for the other FcγRs. Each sample that was analyzed on an FcR-coated surface (Active Surface) was also analyzed on a parallel flow-cell without FcR (Reference Surface), which was used for background correction. Dissociation from the anti-His-coated surface was performed by regeneration of the surface using 10 mM Glycine-HCl pH 1.5 (Cytiva, Cat #BR100354). […]

[3] = target: T3, recombinant His-tagged human FcγRIIa (167-Arg [R]) (human, UniProt P12318 34-218, limits assumed); assay: SPR (Biacore), His-tagged FcγRIIa-R captured on anti-His chip, antibody in solution, resonance units against antibody concentration
T3 construct: Bought; captured on anti-His chip; also called FcγRIIa-R; not shown: His tag
T3 sequence (looked up): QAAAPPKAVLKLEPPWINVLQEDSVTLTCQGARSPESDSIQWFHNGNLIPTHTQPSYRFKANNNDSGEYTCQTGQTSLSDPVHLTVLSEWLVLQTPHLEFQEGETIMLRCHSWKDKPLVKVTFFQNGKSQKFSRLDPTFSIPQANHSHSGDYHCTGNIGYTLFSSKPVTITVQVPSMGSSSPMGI

[4] = target: T4, recombinant His-tagged human FcγRIIIa (176-Phe [F]) (human, UniProt P08637 17-208); assay: SPR (Biacore), His-tagged FcγRIIIa-F captured on anti-His chip, antibody in solution, resonance units against antibody concentration
T4 construct: Bought; captured on anti-His chip; also called FcγRIIIa-F; not shown: His tag

[5] = target: T5, recombinant His-tagged human FcγRIIIa (176-Val [V]) (human, UniProt P08637 17-208); assay: SPR (Biacore), His-tagged FcγRIIIa-V captured on anti-His chip, antibody in solution, resonance units against antibody concentration
T5 construct: Bought; captured on anti-His chip; also called FcγRIIIa-V; not shown: His tag
T5 sequence (P08637 17-208 F176V limits assumed): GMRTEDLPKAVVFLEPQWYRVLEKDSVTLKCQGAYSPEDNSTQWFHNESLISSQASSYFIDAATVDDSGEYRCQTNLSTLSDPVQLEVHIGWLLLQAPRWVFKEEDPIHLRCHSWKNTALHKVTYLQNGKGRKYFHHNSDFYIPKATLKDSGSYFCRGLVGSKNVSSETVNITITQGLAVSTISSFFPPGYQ

T4 sequence (P08637 17-208 limits assumed): as the sequence (P08637 17-208 F176V limits assumed) above, with V160F counted along it
T2 sequence (P12314 16-288 limits assumed): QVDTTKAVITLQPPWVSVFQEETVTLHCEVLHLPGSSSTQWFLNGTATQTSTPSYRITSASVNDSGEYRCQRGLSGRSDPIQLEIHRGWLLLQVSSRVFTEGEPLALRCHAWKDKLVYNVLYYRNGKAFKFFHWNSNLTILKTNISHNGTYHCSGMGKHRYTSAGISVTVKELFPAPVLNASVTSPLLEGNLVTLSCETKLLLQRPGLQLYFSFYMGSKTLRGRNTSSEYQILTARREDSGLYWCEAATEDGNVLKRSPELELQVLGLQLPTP

EC50 (read off the curve) [1]: ~0.03 µg/mL
binding result [2]: binds
binding result [3]: no binding (tested: 10,000 nM)
binding result [4]: no binding (tested: 10,000 nM)
binding result [5]: no binding (tested: 10,000 nM)
B1: IgG1-CD27-A-P329R-E345R (antibody)
heavy: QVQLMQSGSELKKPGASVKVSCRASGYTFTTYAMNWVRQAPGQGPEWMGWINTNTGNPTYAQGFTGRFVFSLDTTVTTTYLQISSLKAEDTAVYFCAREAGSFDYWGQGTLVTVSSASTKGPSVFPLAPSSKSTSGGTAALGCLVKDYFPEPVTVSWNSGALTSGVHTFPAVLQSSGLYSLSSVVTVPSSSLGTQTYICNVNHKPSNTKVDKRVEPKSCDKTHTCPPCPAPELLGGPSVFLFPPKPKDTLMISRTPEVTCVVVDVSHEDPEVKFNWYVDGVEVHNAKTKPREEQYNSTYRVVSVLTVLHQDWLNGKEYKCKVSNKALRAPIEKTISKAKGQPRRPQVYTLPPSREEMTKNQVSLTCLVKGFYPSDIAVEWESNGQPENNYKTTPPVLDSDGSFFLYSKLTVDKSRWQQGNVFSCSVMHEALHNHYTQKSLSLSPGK
light: QSALTQPASVSGSPGQSITISCTGTSSDVYYYNYVSWYQQHPGRAPKLVIYDVSNRPSGVSNRFSGSKSGNTASLTISGLRAEDEADYYCSSYTVNRVWVFGGGTKLTVLGQPKAAPSVTLFPPSSEELQANKATLVCLISDFYPGAVTVAWKADSSPVKAGVETTTPSKQSNNKYAASSYLSLTPEQWKSHRSYSCQVTHEGSTVEKTVAPTECS
notes: also called IgG1-CD27-A-E345R-P329R
